Experimental data as given in PMC3299407 (Biochemical Journal, 2011).

Target: the molecule itself
Assay: native gel or EMSA

B1: myc-laforin wild type (pCMVmyc-laforin WT) (natural protein, human, UniProt O95278 1-331, looked up)
chain: MRFRFGVVVPPAVAGARPELLVVGSRPELGRWEPRGAVRLRPAGTAAGDGALALQEPGLWLGEVELAAEEAAQDGAEPGRVDTFWYKFLKREPGGELSWEGNGPHHDRCCTYNENNLVDGVYCLPIGHWIEATGHTNEMKHTTDFYFNIAGHQAMHYSRILPNIWLGSCPRQVEHVTIKLKHELGITAVMNFQTEWDIVQNSSGCNRYPEPMTPDTMIKLYREEGLAYIWMPTPDMSTEGRVQMLPQAVCLLHALLEKGHIVYVHCNAGVGRSTAAVCGWLQYVMGWNLRKVQYFLMAKRPAVYIDEEALARAQEDFFQKFGKVRSSVCSL
- stoichiometry N: 2

B2: myc-laforin S25D (pCMVmyc-laforin S25D) (natural protein, human, UniProt O95278 1-331, looked up)
chain: MRFRFGVVVPPAVAGARPELLVVGDRPELGRWEPRGAVRLRPAGTAAGDGALALQEPGLWLGEVELAAEEAAQDGAEPGRVDTFWYKFLKREPGGELSWEGNGPHHDRCCTYNENNLVDGVYCLPIGHWIEATGHTNEMKHTTDFYFNIAGHQAMHYSRILPNIWLGSCPRQVEHVTIKLKHELGITAVMNFQTEWDIVQNSSGCNRYPEPMTPDTMIKLYREEGLAYIWMPTPDMSTEGRVQMLPQAVCLLHALLEKGHIVYVHCNAGVGRSTAAVCGWLQYVMGWNLRKVQYFLMAKRPAVYIDEEALARAQEDFFQKFGKVRSSVCSL
- stoichiometry N: 2
